# Results from patent US10864285B2, “Methods for the diagnosis and treatment of Sjögren's syndrome” (The U.S.A., as represented by the Secretary, Department of …, priority 2012, dated 2020).
# B1: BMP6: A member of the TGF-β superfamily of growth factors; added to cultured cells at 6 ng/ml (protein, UniProt P22004 375-513, looked up)
# Bone morphogenetic protein 6: SASSRRRQQSRNRSTQSQDVARVSSASDYNSSELKTACRKHELYVSFQDLGWQDWIIAPKGYAANYCDGECSFPLNAHMNATNHAIVQTLVHLMNPEYVPKPCCAPTKLNAISVLYFDDNSNVILKKYRNMVVRACGCH
# Assays:
# [1] = system: salivary and lacrimal glands of mice; test: Histopathological scoring for lymphocytic infiltrates (focus score); assay type: in vivo, mouse; conditions: 20 weeks post cannulation, vs control mice, statistically significant
# Protocol: Submandibular glands (SMG) were removed for histological analysis from mice at the time of sacrifice, and placed O/N in 10% formalin. After fixation, the tissues were dehydrated in an ethanol series and embedded in paraffin according standard techniques. Sections were cut at 5 μm and subsequently stained with hematoxylin and eosin (H&E). Histopathological scoring was performed using the focus score. A focus is an aggregate of 50 or more mononuclear cells per 4 mm^2. Foci were counted through the whole section, in a total of three sections (50 μm between sections) per SG using a 40× magnification. The results were calculated and expressed as foci per 4 mm^2. The focus scores were assessed blindly by two different examiners and the mean scores were determined.
# A hallmark of pSS is lymphocytic infiltration in the […] glands, especially salivary and lacrimal glands. To determine the effect of elevated BMP6 on the local immune environment of the salivary gland, histopathological scoring for lymphocytic infiltrates was performed on both salivary and lacrimal glands 20 weeks post cannulation. […] Furthermore, no changes in circulating autoantibodies to anti-Ro/SSA or anti-La/SSB were detected in the animals expressing BMP6 in the salivary glands compared with control mice (FIGS. 5C and 5D).
# SMG ducts of mice = test: Electrical potential across the duct of the SMG; assay type: in vivo, mouse; conditions: mice transduced with 10^11 particles of AAV5 expressing BMP6, vs GFP control mice
# From the text: To measure the electrical potential (EP) across the duct of the SMGs, a procedure was developed to measure the EP by cannulating the duct and inserting the electrode in the cannula. The high impedance electrode was attached to an electrometer (model FD223, World Precision Instrument, Sarasota, Fla.). The electrical potential of the duct was read by placing the ground electronic rode on the adjacent tissues to the opening of the ducts.
# To measure electrophysiologic parameters associated with Sjögren's syndrome, a measurement circuit 20 (see FIG. 10) was established between a detection electrode 22 placed in a salivary gland duct and a reference electrode 24 placed in electrical contact with adjacent oral mucosa. In this particular example, the electrical potential was measured across the ducts of SMGs. A procedure was developed to measure TEER by cannulating the electrode of a transmeter (model FD223, World Precision Instrument, Sarasota, Fla.) in the ducts of SMGs of mice (FIG. 10). […]
# The detecting electrode included a cannula 26 placed on a 1 mL syringe 28, which was a fixed supporter. […] The trans-epithelial potential was read by placing the ground electrode on the tissues adjacent to the opening of the ducts. Background potential was determined by reading the potential when the detecting electronic rode was placed in saline only.
# Caco-2 cells = test: Trans epithelial resistance (TEER) of cell monolayers in transwells; assay type: cell-based; conditions: Caco-2 cells grown in 6 ng/ml BMP6 vs without BMP6
# Protocol: (§1) Trans epithelial electrical resistance (TER) of all cell types was measured using a using a volt/ohm meter (Millicel; Millipore, Mass., USA) in an electrode chamber (EVOV; WPI, FL, USA). Cells were allowed to establish monolayers on 0.4-Am pore size polycarbonate filters in 6-mm Transwell chambers (Costar, Mass., USA).
# (§2) Tight junction structures are important in the correct functioning of the salivary glands. […] To determine if BMP6 expression could alter epithelial integrity, monolayers of three well differentiated epithelia (SMEI, Caco-2, and MDCK1 cells) grown in the presence of 6 ng/ml BMP6 in transwells were tested for changes in trans epithelial resistance (TEER) compared with cells grown without BMP6 (FIG. 7A). […] BMP6 expression also changed the electrical potential of the glands as well (FIG. 7A).
# MDCK1 cells = test: as above; assay type: cell-based; conditions: MDCK1 cells grown in 6 ng/ml BMP6 vs without BMP6
# Protocol: as §1, §2
# SMEI cells = test: as above; assay type: cell-based; conditions: SMEI cells grown in 6 ng/ml BMP6 vs without BMP6
# Protocol: as §1, §2
# [2] = system: HSG cells (a human salivary gland cell line); test: Regulated volume decrease (RVD) after hypotonic solution in HSG cells; assay type: cell-based; conditions: 6 ng/ml of BMP6 for 4 days
# Protocol: Regulated volume decrease was measured as described previously (Liu et al., J Biol Chem 281:15485-15495, 2006). Briefly SMGs from mice were removed at the end of the study and prepared as described (Liu et al., J Biol Chem 281:15485-15495, 2006). Cells were then loaded with the fluoroprobe calcein (Molecular Probes, Inc., Eugene, Oreg.) and excited at 490 nm. Emitted fluorescence was measured at 510 nm. In situ calibration of the dye was performed. Origin 7.5 (OriginLab, Northampton, Mass.) was used for data analysis and display. Significant difference between individual groups was tested by using analysis of variance.
# Although no increase in a number of immunological factors was detected, it is not possible to rule out the possibility that BMP6 expression is a trigger for expression of another soluble factor and is not directly causing the loss of RVD in isolated salivary gland cells from the treated mice. To test for a direct effect of BMP6 on RVD, HSG cells (a human salivary gland cell line) were treated with 6 ng/ml of BMP6 for 4 days and then assayed for a loss in RVD activity (FIG. 8B). […] To date little is known about the role of BMPs in SS and the present work represents the first association.
molecule,measurement,setting,value
B1,Increase in focus score in the salivary glands,[1],> 2 fold
same,Electrical potential in intact salivary glands,SMG ducts of mice,increase in electrical potential
same,Change in TEER,Caco-2 cells,statistically significant increase in TEER
same,Change in TEER,MDCK1 cells,statistically significant increase in TEER
same,Change in TEER,SMEI cells,statistically significant increase in TEER
same,RVD activity of HSG cells,[2],loss of volume decrease was detected
